The labels stand for the following.
B1: CoV2-YD-8 (antibody, V domains shown)
VH: QVQLVESGGGLVQPGGSLSLSCAASGSMNSMNPMGWYRQAPGKEREVVARISSGGSTTYTDSVKGRFTISRDSAKNTVYLQMNSLKPDDTAVYYCYIIDDYGVQYWGKGTQVTVS
B2: CoV2-YD-6 (antibody, V domains shown)
VH: QVQLVESGGGSVQVGGSLRLSCAASGMTFSSATMAWYRQAPGKQREWVAGIGSGGRTSYASSMKGRFTISRDNAKNTVYLQMNSLKPEDTAVYYCYTALLSGGDYWGQGTQVTVS
B3: CoV2-YD-3 (antibody, V domains shown)
VH: QVQLVESGGGLVQAGGSLRLSCVASTTWFSNFGMGWYRQAPGKQRELVAGITYDGTTKYVDSVKGRSTIARDNAKNTVSLQMNSVKPGDTAIYYCNTYPSQLWNWGQGTQVTVS
B4: CoV2-YD-2 (antibody, V domains shown)
VH: QVQLVESGGGLVQPGGSLRLSCSISGFSFGYSAIGWFRQAPGLEREWVSTISSNGDDTVYADSVKGRFTISRDNAKNTVYLQMDSLKPEDTAVYYCARSFRWSRLPRDYDSWGQGTQVTVS
B5: CoV2-YD-9 (antibody, V domains shown)
VH: QVQLVESGGGLVQAGGSVRLSCAASGITFSNYASQWFRQTPGKAREFVAAISGGGTTSYAASVKGRFTLSRDNAKNTVYLQMNDLKFEDTAVYYCHTADLYSDYWGQGTQVTVS
B6: CoV2-YD-7 (antibody, V domains shown)
VH: QVQLVESGGGLVQPGGSLRLSCTASVHPFSIYDMGWYRQAPGKQRVLVASISSDGTTDYADSVKGRFTISRDNAKNTVYLQMDSLKPEDTAVYYCNLAYVTWGQGTQVTVS
B7: CoV2-YD-33 (antibody, V domains shown)
VH: DVQLVESGGGLVQAGGSLRLSCVASGSTDSNYVMGWHRQTSGKQSEWVASIESGGEKKIVDSVKGRFTISRDNAKNTVYLQMNSLKPEDTAVYYCFYERLAWDTSTYWGQGTQVTVS
B8: CoV2-YD-34 (antibody, V domains shown)
VH: B7 VH with H37Y, S45R, E52N, K57T, K58R, I59S, V60A, V63E, R71G, A91G

The source of these data is paper PMC9884143 (2023).

Positions count from the first letter of the chain named.

This assay deals with SARS-CoV-2 Spike S1 (Wuhan; S1 or RBD) (Severe acute respiratory syndrome …, UniProt P0DTC2). In words: SPR. A general note: Surface plasmon resonance follows binding to a sensor surface in real time, without labels.
In general, Kd refers to the constant that tells how readily two partners part at equilibrium. A high value points to lower affinity. B1 came in with a Kd of 0.126 nM.
Next, B2: 2.91 nM.
With B3 the figure was 0.0409 nM; with B4, 3.68 nM.
Next, B5: 0.0164 nM.
Consider B6, for which the Kd was found to be 3.24 nM.
With B7 the figure was 3.54 nM; with B8, 0.541 nM.
